From the RNAGym collection of RNA variant scans (doi:10.1093/molbev/msab373)

B1: Azoarcus group I ribozyme (parent)
chain: GUGCCUUGCGCCGGGAAACCACGCAAGGGAUGGUGUCAAAUUCGGCGAAACCUAAGCGCCCGCCCGGGCGUAUGGCAACGCCGAGCCAAGCUUCGGCGCCUGCGCCGAUGAAGGUGUAGAGACUAGACGGCACCCACCUAAGGCAAACGCUAUGGUGAAGGCAUAGUCCAGGGAGUGGCGAAAGUCACACAAACCGG

Variants of: B1
Assay: reverse-splicing fitness (ratio to wild type); higher = more active; in vitro selection; Mg2+ level not given
Outline: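 An in vitro group I ribozyme library with randomized positions was T7-transcribed and gel-purified. In triplicate, 10 pmol RNA in EPPS pH 7.5 was reacted with 50 pmoles of a 30-nt RNA substrate for 1 h at 37 °C across several added MgCl2 levels (1–48 mM), then stopped with EDTA. Products were reverse transcribed from a substrate-complementary primer, PCR-amplified and sequenced (HiSeq 4000). Fitness is a variant's read proportion after selection over that before, normalised to wild type.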

Row | Variant | reverse-splicing fitness
1 | C82G A111C A120C C150A C169A U176G | 0.00868
2 | C82G A111C A120C C150A C169G | 0.00905
3 | C82G A111C A120C C150A C169G U176A | 0.0183
4 | C82G A111C A120C C150A C169G U176C | 0.0225
5 | C82G A111C A120C C150A C169G U176G | 0.00766
6 | C82G A111C A120C C150A C169U | 0.0123
7 | C82G A111C A120C C150A C169U U176A | 0.015
8 | C82G A111C A120C C150A C169U U176C | 0.0153
9 | C82G A111C A120C C150A C169U U176G | 0.0085
10 | C82G A111C A120C C150A U176A | 0.0125
11 | C82G A111C A120C C150A U176C | 0.0203
12 | C82G A111C A120C C150A U176G | 0.00842
13 | C82G A111C A120C C150G | 0.00951
14 | C82G A111C A120C C150G C169A | 0.00742
15 | C82G A111C A120C C150G C169A U176A | 0.00918
16 | C82G A111C A120C C150G C169A U176C | 0.0137
17 | C82G A111C A120C C150G C169A U176G | 0.00619
18 | C82G A111C A120C C150G C169G | 0.00702
19 | C82G A111C A120C C150G C169G U176A | 0.00891
20 | C82G A111C A120C C150G C169G U176C | 0.00766
21 | C82G A111C A120C C150G C169G U176G | 0.00663

Row | Variant | reverse-splicing fitness
22 | C82G A111C A120C C150G C169U | 0.00996
23 | C82G A111C A120C C150G C169U U176A | 0.00786
24 | C82G A111C A120C C150G C169U U176C | 0.0107
25 | C82G A111C A120C C150G C169U U176G | 0.00751
26 | C82G A111C A120C C150G U176A | 0.00574
27 | C82G A111C A120C C150G U176C | 0.00847
28 | C82G A111C A120C C150G U176G | 0.00427
29 | C82G A111C A120C C150U | 0.0277
30 | C82G A111C A120C C150U C169A | 0.0099
31 | C82G A111C A120C C150U C169A U176A | 0.0126
32 | C82G A111C A120C C150U C169A U176C | 0.0129
33 | C82G A111C A120C C150U C169A U176G | 0.00909
34 | C82G A111C A120C C150U C169G | 0.00825
35 | C82G A111C A120C C150U C169G U176A | 0.0152
36 | C82G A111C A120C C150U C169G U176C | 0.0171
37 | C82G A111C A120C C150U C169G U176G | 0.0066
38 | C82G A111C A120C C150U C169U | 0.0139
39 | C82G A111C A120C C150U C169U U176A | 0.0158
40 | C82G A111C A120C C150U C169U U176C | 0.0142
41 | C82G A111C A120C C150U C169U U176G | 0.00857
42 | C82G A111C A120C C150U U176A | 0.0157

Row | Variant | reverse-splicing fitness
43 | C82G A111C A120C C150U U176C | 0.0226
44 | C82G A111C A120C C150U U176G | 0.00767
45 | C82G A111C A120C C169A | 0.00716
46 | C82G A111C A120C C169A U176A | 0.0156
47 | C82G A111C A120C C169A U176C | 0.0194
48 | C82G A111C A120C C169A U176G | 0.0072
49 | C82G A111C A120C C169G | 0.00886
50 | C82G A111C A120C C169G U176A | 0.0161
51 | C82G A111C A120C C169G U176C | 0.0206
52 | C82G A111C A120C C169G U176G | 0.00714
53 | C82G A111C A120C C169U | 0.0148
54 | C82G A111C A120C C169U U176A | 0.0183
55 | C82G A111C A120C C169U U176C | 0.0163
56 | C82G A111C A120C C169U U176G | 0.00655
57 | C82G A111C A120C U176A | 0.018
58 | C82G A111C A120C U176C | 0.0268
59 | C82G A111C A120C U176G | 0.00944
60 | C82G A111C A120G | 0.0185
61 | C82G A111C A120G A145C | 0.013
62 | C82G A111C A120G A145C C150A | 0.00698
63 | C82G A111C A120G A145C C150A C169A | 0.00918

Row | Variant | reverse-splicing fitness
64 | C82G A111C A120G A145C C150A C169A U176A | 0.0124
65 | C82G A111C A120G A145C C150A C169A U176C | 0.00779
66 | C82G A111C A120G A145C C150A C169A U176G | 0.00562
67 | C82G A111C A120G A145C C150A C169G | 0.00794
68 | C82G A111C A120G A145C C150A C169G U176A | 0.0248
69 | C82G A111C A120G A145C C150A C169G U176C | 0.0158
70 | C82G A111C A120G A145C C150A C169G U176G | 0.00529
71 | C82G A111C A120G A145C C150A C169U | 0.00679
72 | C82G A111C A120G A145C C150A C169U U176A | 0.0151
73 | C82G A111C A120G A145C C150A C169U U176C | 0.00999
74 | C82G A111C A120G A145C C150A C169U U176G | 0.0047
75 | C82G A111C A120G A145C C150A U176A | 0.0121
76 | C82G A111C A120G A145C C150A U176C | 0.011
77 | C82G A111C A120G A145C C150A U176G | 0.00463
78 | C82G A111C A120G A145C C150G | 0.00634
79 | C82G A111C A120G A145C C150G C169A | 0.0084
80 | C82G A111C A120G A145C C150G C169A U176A | 0.00812
81 | C82G A111C A120G A145C C150G C169A U176C | 0.00738
82 | C82G A111C A120G A145C C150G C169A U176G | 0.005
83 | C82G A111C A120G A145C C150G C169G | 0.00722
